# Tests used:
# [1] = molecular target: human N-cadherin naturally expressed on DX3 melanoma cells (human) (UniProt P19022); test: adhesion of DX3 cells to coated monomeric N-cadherin-Fc, in oxidising buffer and in 10 mM DTT
# [2] = molecular target: T1, full length chicken N-cadherin with the mutation D1C expressed on K562 cells (chicken, UniProt P10288 165-912, D1C); test: Protein A Dynabeads coated with dimeric D27C N-cadherin-Fc mixed with K562 transfectants
# T1 construct: whole, on cells; also called D1C cells; K562 D1C
# T1 sequence (looked up): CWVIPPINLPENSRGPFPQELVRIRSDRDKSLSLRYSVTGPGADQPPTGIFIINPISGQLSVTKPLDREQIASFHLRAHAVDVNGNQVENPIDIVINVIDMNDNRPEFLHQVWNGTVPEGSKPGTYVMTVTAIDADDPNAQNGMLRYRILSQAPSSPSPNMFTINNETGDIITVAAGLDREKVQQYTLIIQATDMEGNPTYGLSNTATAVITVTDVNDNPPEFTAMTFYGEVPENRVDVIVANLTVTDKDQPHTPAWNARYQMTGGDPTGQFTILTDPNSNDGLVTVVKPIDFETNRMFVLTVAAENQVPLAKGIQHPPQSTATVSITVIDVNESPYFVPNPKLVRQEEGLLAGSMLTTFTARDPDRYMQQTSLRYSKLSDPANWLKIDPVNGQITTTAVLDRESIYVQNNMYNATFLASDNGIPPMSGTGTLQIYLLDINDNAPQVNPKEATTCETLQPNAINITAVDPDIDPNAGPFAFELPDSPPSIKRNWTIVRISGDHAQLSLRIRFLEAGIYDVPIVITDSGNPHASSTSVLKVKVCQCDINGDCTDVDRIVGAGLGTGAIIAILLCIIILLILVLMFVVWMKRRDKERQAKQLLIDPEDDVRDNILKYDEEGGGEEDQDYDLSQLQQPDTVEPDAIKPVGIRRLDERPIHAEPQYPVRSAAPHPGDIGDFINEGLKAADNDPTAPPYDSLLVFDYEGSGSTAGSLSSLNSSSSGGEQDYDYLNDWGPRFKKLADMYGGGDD
# Method: (§1) In an alternative protocol, Dynabeads (Dynal) coupled to Protein A were coated with dimeric N-cadherin-Fc (1 μg/ml), bearing the mutation D27C, for 1 hour at room temperature in the presence of 0.1% Tween 20 and 4 mM EGTA (to prevent aggregation). The beads were then washed with HBSS. K562 transfectants expressing cell surface Ncadherin with the mutations D1C, R25C or D27C, were treated with 10 mM DTT for 15 minutes at 37° C., then washed and resuspended in HBSS without DTT. Cells ([…]) were mixed with 3 μl of beads coated with mutant N-cadherin-Fc in a final volume of 100 μl HBSS. Cells and beads were incubated together at room temperature for 2 hours with slow rotation to allow adhesion. Approximately five beads became attached to each cell and there was some clumping of attached and unattached beads. Iodoacetamide, 2 μl of 1.0M solution, was then added to alkylate free sulphydryl groups. The samples were then spun down at 1500 g and the cells were lysed in HBSS, 0.075% SDS, 1% NP40, 0.2 mM AEBSF, for 4 minutes on ice. Beads were then isolated with a magnet and washed twice with lysis buffer. Disulphide-bonded complexes between cellular cadherin and the Fc-fusion protein were analysed by SDS-PAGE and immunoblotting for cadherin cytoplasmic domain as described above. To ensure equal loading, membranes were stripped and re-assayed with anti-Human Fc.
# [3] = molecular target: T2, full length chicken N-cadherin with the mutation R25C expressed on K562 cells (chicken, UniProt P10288 165-912, R25C); test: as above
# T2 construct: whole, on cells; also called K562 R25C
# T2 sequence (looked up): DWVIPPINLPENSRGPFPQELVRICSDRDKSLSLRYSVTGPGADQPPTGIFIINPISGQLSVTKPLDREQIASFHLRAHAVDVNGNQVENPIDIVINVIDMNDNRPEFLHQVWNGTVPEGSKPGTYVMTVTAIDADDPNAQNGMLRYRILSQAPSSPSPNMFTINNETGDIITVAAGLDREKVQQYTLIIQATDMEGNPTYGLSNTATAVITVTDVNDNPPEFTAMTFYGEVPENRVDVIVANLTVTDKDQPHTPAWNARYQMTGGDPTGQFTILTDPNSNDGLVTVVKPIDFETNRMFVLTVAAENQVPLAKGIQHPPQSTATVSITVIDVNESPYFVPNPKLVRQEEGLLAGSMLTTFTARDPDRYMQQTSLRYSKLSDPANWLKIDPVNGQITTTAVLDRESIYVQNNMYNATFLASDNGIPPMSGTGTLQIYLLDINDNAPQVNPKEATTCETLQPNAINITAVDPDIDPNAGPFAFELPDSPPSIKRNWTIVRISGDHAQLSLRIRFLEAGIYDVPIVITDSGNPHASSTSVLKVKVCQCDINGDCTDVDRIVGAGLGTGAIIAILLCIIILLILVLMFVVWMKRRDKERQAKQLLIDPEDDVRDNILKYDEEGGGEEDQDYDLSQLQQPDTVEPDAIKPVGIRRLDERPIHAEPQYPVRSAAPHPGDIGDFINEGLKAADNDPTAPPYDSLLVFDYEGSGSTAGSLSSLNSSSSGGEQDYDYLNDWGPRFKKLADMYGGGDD
# Method: as §1
# [4] = molecular target: T3, full length chicken N-cadherin with the mutation D27C expressed on K562 cells (chicken, UniProt P10288 165-912, D27C); test: as above
# T3 construct: whole, on cells; also called K562 D27C
# T3 sequence (looked up): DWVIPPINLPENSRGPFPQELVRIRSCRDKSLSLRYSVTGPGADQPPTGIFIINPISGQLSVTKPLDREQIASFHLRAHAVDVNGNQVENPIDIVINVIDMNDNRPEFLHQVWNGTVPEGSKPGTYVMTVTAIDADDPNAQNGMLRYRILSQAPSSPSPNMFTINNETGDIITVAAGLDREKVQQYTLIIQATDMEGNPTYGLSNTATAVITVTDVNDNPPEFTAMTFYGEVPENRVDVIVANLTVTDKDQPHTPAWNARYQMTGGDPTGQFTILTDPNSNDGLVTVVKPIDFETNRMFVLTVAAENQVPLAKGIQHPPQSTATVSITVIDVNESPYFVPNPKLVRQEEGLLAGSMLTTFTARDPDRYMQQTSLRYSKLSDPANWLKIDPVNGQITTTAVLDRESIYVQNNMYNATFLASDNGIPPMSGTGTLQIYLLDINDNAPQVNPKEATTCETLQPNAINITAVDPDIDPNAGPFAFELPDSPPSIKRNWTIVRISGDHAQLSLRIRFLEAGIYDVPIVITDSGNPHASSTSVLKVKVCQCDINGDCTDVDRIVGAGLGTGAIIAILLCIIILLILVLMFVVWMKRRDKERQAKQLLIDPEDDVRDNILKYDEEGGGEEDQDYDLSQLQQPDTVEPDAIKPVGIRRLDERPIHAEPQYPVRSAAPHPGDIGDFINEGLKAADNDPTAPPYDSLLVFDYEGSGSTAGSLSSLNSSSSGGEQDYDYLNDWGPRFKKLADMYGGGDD
# Method: as §1
# [5] = molecular target: T4, human N-cadherin naturally expressed on DX3 melanoma cells (human, UniProt P19022 160-906); test: adhesion of DX3 cells to coated monomeric N-cadherin-Fc, oxidising buffer
# T4 construct: also called DX3 Cells; N-cadherin+ve DX3 melanoma cells
# T4 sequence: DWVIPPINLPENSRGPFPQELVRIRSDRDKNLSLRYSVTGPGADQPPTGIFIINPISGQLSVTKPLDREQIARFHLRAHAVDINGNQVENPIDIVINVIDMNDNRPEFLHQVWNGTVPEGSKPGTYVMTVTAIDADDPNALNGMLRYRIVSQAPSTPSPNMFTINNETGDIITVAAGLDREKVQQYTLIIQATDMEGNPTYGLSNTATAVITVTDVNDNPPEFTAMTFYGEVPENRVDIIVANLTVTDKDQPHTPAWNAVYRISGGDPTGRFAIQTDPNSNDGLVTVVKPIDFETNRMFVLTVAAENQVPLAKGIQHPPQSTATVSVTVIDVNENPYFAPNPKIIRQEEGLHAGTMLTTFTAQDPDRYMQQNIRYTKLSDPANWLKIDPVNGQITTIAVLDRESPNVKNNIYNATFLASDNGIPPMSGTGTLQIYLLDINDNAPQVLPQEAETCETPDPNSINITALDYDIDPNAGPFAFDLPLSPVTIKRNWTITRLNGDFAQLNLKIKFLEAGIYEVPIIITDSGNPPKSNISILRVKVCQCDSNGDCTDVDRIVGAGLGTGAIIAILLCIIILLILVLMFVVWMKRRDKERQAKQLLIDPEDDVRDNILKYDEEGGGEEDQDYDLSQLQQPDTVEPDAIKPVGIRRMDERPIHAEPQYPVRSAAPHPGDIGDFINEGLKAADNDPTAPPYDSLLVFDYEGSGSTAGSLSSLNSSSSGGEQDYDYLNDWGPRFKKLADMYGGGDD
# Method: Monomeric or dimeric N-cadherin-Fc fusion protein in Cos cell supernatants was added as described for the ELISA assay. DX3 Cells, a human melanoma cell line which expresses N-cadherin, were dissociated with Cell Dissociation Solution (Sigma, code C5789), resuspended in HBSS with 2% FCS and assessed for adhesion to wild type or mutant N-cadherin-Fc as previously described (Corps et al., 2001). Microscopic examination established that the cells were present as a single cell suspension as they settled onto the plate. For assays conducted in reducing conditions, 10 mM DTT was present during the adhesion and washing steps. Determinations were conducted in triplicate and results are presented as mean +/−sem.
# [6] = molecular target: T1, full length chicken N-cadherin with the …; test: cell adhesion to coated monomeric N-cadherin-Fc, then non-reducing SDS-PAGE and immunoblot
# Method: Monomeric N-cadherin-Fc (1 μg/ml) bearing the three alternative cysteine point mutations, D1C, R25C or D27C, was immobilised on 96-well plates with goat antihuman IgG Fe as previously described for E-cadherin-Fc (Corps et al., 2001). Unbound cadherin was removed by washing with HBSS, 0.1% BSA, followed by HBSS alone. The plates were not blocked with additional protein. K562 transfectants expressing N-cadherin bearing complementary or non-complementary point mutations (6×10^4 Cells in 100 μl HBSS containing 10 mM DTT), in single cell suspension, were added to the coated wells which contained 100 μl HBSS. The final concentration of DTT was therefore 5 mM DTT during the adhesion stage. The cells were allowed to settle for 10 min at room temperature before incubation at 37° C. for 30 minutes to complete adhesion. […] Adherent cells from a pool of 4 wells for each experimental condition were then solubilised in sample buffer for SDS-PAGE and analysed on NuPAGE Novex gradient gels, 3-8% or 4-12%, (Invitrogen), under nonreducing or reducing conditions. Cellular cadherin was detected by immunoblotting using rabbit pan anti-cadherin antiserum specific for the cytoplasmic domain. Alternatively, N-cadherin-Fc fusion protein was detected with rabbit anti-human IgG, Fc-specific (Pierce, code 31142). […]
molecule,measurement,setting,value
wild type monomeric chicken N-cadherin-Fc (mutations F405A and Y407A in the CH3 domain of Fc) (from UniProt P10288 165-729) (Fc fusion),% cells adhering,[1],65%
"chicken N-cadherin-Fc fusion protein with the mutation D27C, dimeric (conventional fusion protein dimerised via Fc), coated to Protein A magnetic beads (Fc fusion, UniProt P10288 165-728, looked up, extracellular domain; also called dimeric N-cadherin-Fc D27C; D27C beads; not shown: hinge region, CH2 and CH3 domains of human IgG1 heavy chain (vector pIgSig)) DWVIPPINLPENSRGPFPQELVRIRSCRDKSLSLRYSVTGPGADQPPTGIFIINPISGQLSVTKPLDREQIASFHLRAHAVDVNGNQVENPIDIVINVIDMNDNRPEFLHQVWNGTVPEGSKPGTYVMTVTAIDADDPNAQNGMLRYRILSQAPSSPSPNMFTINNETGDIITVAAGLDREKVQQYTLIIQATDMEGNPTYGLSNTATAVITVTDVNDNPPEFTAMTFYGEVPENRVDVIVANLTVTDKDQPHTPAWNARYQMTGGDPTGQFTILTDPNSNDGLVTVVKPIDFETNRMFVLTVAAENQVPLAKGIQHPPQSTATVSITVIDVNESPYFVPNPKLVRQEEGLLAGSMLTTFTARDPDRYMQQTSLRYSKLSDPANWLKIDPVNGQITTTAVLDRESIYVQNNMYNATFLASDNGIPPMSGTGTLQIYLLDINDNAPQVNPKEATTCETLQPNAINITAVDPDIDPNAGPFAFELPDSPPSIKRNWTIVRISGDHAQLSLRIRFLEAGIYDVPIVITDSGNPHASSTSVLKVKVCQCDINGDCTDVDRIVGAGLGT",beads attached to each cell,[2],~5 beads per cell
same,beads attached to each cell,[3],~5 beads per cell
same,beads attached to each cell,[4],~5 beads per cell
"monomeric chicken N-cadherin-Fc with the mutation R25C (Fc fusion, UniProt P10288 165-728, looked up, extracellular domain; not shown: hinge region, CH2 and CH3 domains of human IgG1 heavy chain (vector pIgSig)) DWVIPPINLPENSRGPFPQELVRICSDRDKSLSLRYSVTGPGADQPPTGIFIINPISGQLSVTKPLDREQIASFHLRAHAVDVNGNQVENPIDIVINVIDMNDNRPEFLHQVWNGTVPEGSKPGTYVMTVTAIDADDPNAQNGMLRYRILSQAPSSPSPNMFTINNETGDIITVAAGLDREKVQQYTLIIQATDMEGNPTYGLSNTATAVITVTDVNDNPPEFTAMTFYGEVPENRVDVIVANLTVTDKDQPHTPAWNARYQMTGGDPTGQFTILTDPNSNDGLVTVVKPIDFETNRMFVLTVAAENQVPLAKGIQHPPQSTATVSITVIDVNESPYFVPNPKLVRQEEGLLAGSMLTTFTARDPDRYMQQTSLRYSKLSDPANWLKIDPVNGQITTTAVLDRESIYVQNNMYNATFLASDNGIPPMSGTGTLQIYLLDINDNAPQVNPKEATTCETLQPNAINITAVDPDIDPNAGPFAFELPDSPPSIKRNWTIVRISGDHAQLSLRIRFLEAGIYDVPIVITDSGNPHASSTSVLKVKVCQCDINGDCTDVDRIVGAGLGT",binding result,[5],binds
same,binding result,[6],binds
